Measurements reported in patent publication US20240352102A1 (UNITED STATES GOVERNMENT AS REPRESENTED BY THE DEPARTMENT …, published 2024).

Legend:
Test in all cases: peptide microarray
Peptide_001 = biological target: T1, Peptide_001
T1 peptide: MAEPRQEFEVMEDHA

Peptide_010 = biological target: T2, Peptide_010
T2 peptide: GDTDAGLKESPLQTP

Peptide_013 = biological target: T3, Peptide_013
T3 peptide: QTPTEDGSEEPGSET

Peptide_015 = biological target: T4, Peptide_015
T4 peptide: EEPGSETSDAKSTPT

Peptide_016 = biological target: T5, Peptide_016
T5 peptide: SETSDAKSTPTAEAE

Peptide_017 = biological target: T6, Peptide_017
T6 peptide: DAKSTPTAEAEEAGI

Peptide_018 = biological target: T7, Peptide_018
T7 peptide: TPTAEAEEAGIGDTP

Peptide_019 = biological target: T8, Peptide_019
T8 peptide: EAEEAGIGDTPSLED

Peptide_020 = biological target: T9, Peptide_020
T9 peptide: AGIGDTPSLEDEAAG

Peptide_022 = biological target: T10, Peptide_022
T10 peptide: LEDEAAGHVTQARMV

Peptide_024 = biological target: T11, Peptide_024
T11 peptide: VTQARMVSKSKDGTG

Peptide_025 = biological target: T12, Peptide_025
T12 peptide: RMVSKSKDGTGSDDK

Peptide_026 = biological target: T13, Peptide_026
T13 peptide: KSKDGTGSDDKKAKG

Peptide_027 = biological target: T14, Peptide_027
T14 peptide: GTGSDDKKAKGADGK

Peptide_028 = biological target: T15, Peptide_028
T15 peptide: DDKKAKGADGKTKIA

Peptide_029 = biological target: T16, Peptide_029
T16 peptide: AKGADGKTKIATPRG

Peptide_003 = biological target: T17, Peptide_003
T17 peptide: EVMEDHAGTYGLGDR

Peptide_032 = biological target: T18, Peptide_032
T18 peptide: PRGAAPPGQKGQANA

Peptide_033 = biological target: T19, Peptide_033
T19 peptide: APPGQKGQANATRIP

Peptide_036 = biological target: T20, Peptide_036
T20 peptide: RIPAKTPPAPKTPPS

Peptide_007 = biological target: T21, Peptide_007
T21 peptide: DQGGYTMHQDQEGDT

Peptide_008 = biological target: T22, Peptide_008
T22 peptide: YTMHQDQEGDTDAGL

Peptide_009 = biological target: T23, Peptide_009
T23 peptide: QDQEGDTDAGLKESP

Peptide_037 = biological target: T24, Peptide_037
T24 peptide: KTPPAPKTPPSSGEP

Peptide_038 = biological target: T25, Peptide_038
T25 peptide: APKTPPSSGEPPKSG

Peptide_039 = biological target: T26, Peptide_039
T26 peptide: PPSSGEPPKSGDRSG

Peptide_041 = biological target: T27, Peptide_041
T27 peptide: KSGDRSGYSSPGSPG

Peptide_042 = biological target: T28, Peptide_042
T28 peptide: RSGYSSPGSPGTPGS

Peptide_043 = biological target: T29, Peptide_043
T29 peptide: SSPGSPGTPGSRSRT

Peptide_044 = biological target: T30, Peptide_044
T30 peptide: SPGTPGSRSRTPSLP

Peptide_045 = biological target: T31, Peptide_045
T31 peptide: PGSRSRTPSLPTPPT

Peptide_046 = biological target: Peptide_046
Peptide_049 = biological target: T32, Peptide_049
T32 peptide: EPKKVAVVRTPPKSP

Peptide_054 = biological target: T33, Peptide_054
T33 peptide: RLQTAPVPMPDLKNV

Peptide_056 = biological target: T34, Peptide_056
T34 peptide: MPDLKNVKSKIGSTE

Peptide_057 = biological target: T35, Peptide_057
T35 peptide: KNVKSKIGSTENLKH

Peptide_058 = biological target: T36, Peptide_058
T36 peptide: SKIGSTENLKHQPGG

Peptide_062 = biological target: T37, Peptide_062
T37 peptide: KVQIINKKLDLSNVQ

Peptide_064 = biological target: T38, Peptide_064
T38 peptide: LDLSNVQSKCGSKDN

Peptide_065 = biological target: T39, Peptide_065
T39 peptide: NVQSKCGSKDNIKHV

Peptide_066 = biological target: T40, Peptide_066
T40 peptide: KCGSKDNIKHVPGGG

Peptide_067 = biological target: T41, Peptide_067
T41 peptide: KDNIKHVPGGGSVQI

Peptide_068 = biological target: T42, Peptide_068
T42 peptide: KHVPGGGSVQIVYKP

Peptide_069 = biological target: T43, Peptide_069
T43 peptide: GGGSVQIVYKPVDLS

Peptide_070 = biological target: T44, Peptide_070
T44 peptide: VQIVYKPVDLSKVTS

Peptide_072 = biological target: T45, Peptide_072
T45 peptide: DLSKVTSKCGSLGNI

Peptide_074 = biological target: T46, Peptide_074
T46 peptide: CGSLGNIHHKPGGGQ

binding result (Peptide_001): no binding (tested: 1 ug/ml)
binding result (Peptide_010): no binding (tested: 1 ug/ml)
binding result (Peptide_013): no binding (tested: 1 ug/ml)
binding result (Peptide_015): no binding (tested: 1 ug/ml)
binding result (Peptide_016): no binding (tested: 1 ug/ml)
binding result (Peptide_017): no binding (tested: 1 ug/ml)
binding result (Peptide_018): no binding (tested: 1 ug/ml)
binding result (Peptide_019): no binding (tested: 1 ug/ml)
binding result (Peptide_020): no binding (tested: 1 ug/ml)
binding result (Peptide_022): no binding (tested: 1 ug/ml)
binding result (Peptide_024): no binding (tested: 1 ug/ml)
binding result (Peptide_025): no binding (tested: 1 ug/ml)
binding result (Peptide_026): no binding (tested: 1 ug/ml)
binding result (Peptide_027): no binding (tested: 1 ug/ml)
binding result (Peptide_028): no binding (tested: 1 ug/ml)
binding result (Peptide_029): no binding (tested: 1 ug/ml)
binding result (Peptide_003): no binding (tested: 1 ug/ml)
binding result (Peptide_032): no binding (tested: 1 ug/ml)
binding result (Peptide_033): no binding (tested: 1 ug/ml)
binding result (Peptide_036): no binding (tested: 1 ug/ml)
binding result (Peptide_007): no binding (tested: 1 ug/ml)
binding result (Peptide_008): no binding (tested: 1 ug/ml)
binding result (Peptide_009): no binding (tested: 1 ug/ml)
binding result (Peptide_037): no binding (tested: 1 ug/ml)
binding result (Peptide_038): no binding (tested: 1 ug/ml)
binding result (Peptide_039): no binding (tested: 1 ug/ml)
binding result (Peptide_041): no binding (tested: 1 ug/ml)
binding result (Peptide_042): no binding (tested: 1 ug/ml)
binding result (Peptide_043): no binding (tested: 1 ug/ml)
binding result (Peptide_044): no binding (tested: 1 ug/ml)
binding result (Peptide_045): no binding (tested: 1 ug/ml)
binding result (Peptide_046): no binding (tested: 1 ug/ml)
binding result (Peptide_049): no binding (tested: 1 ug/ml)
binding result (Peptide_054): no binding (tested: 1 ug/ml)
binding result (Peptide_056): no binding (tested: 1 ug/ml)
binding result (Peptide_057): no binding (tested: 1 ug/ml)
binding result (Peptide_058): no binding (tested: 1 ug/ml)
binding result (Peptide_062): no binding (tested: 1 ug/ml)
binding result (Peptide_064): no binding (tested: 1 ug/ml)
binding result (Peptide_065): no binding (tested: 1 ug/ml)
binding result (Peptide_066): no binding (tested: 1 ug/ml)
binding result (Peptide_067): no binding (tested: 1 ug/ml)
binding result (Peptide_068): no binding (tested: 1 ug/ml)
binding result (Peptide_069): no binding (tested: 1 ug/ml)
binding result (Peptide_070): no binding (tested: 1 ug/ml)
binding result (Peptide_072): no binding (tested: 1 ug/ml)
binding result (Peptide_074): no binding (tested: 1 ug/ml)
B1: mAb TRC35 (antibody, V domains shown)
VH: QVQLQQPGTELVKPGASVKLSCKASGYTFTSYWLQWVKQRPGQGLEWIGEIDPSDSYTNYNQKFKGKATLTVDTSSSTAYMQLSSLTSEDSAVYYCATLTGSWGQGTTLAVSS
VL: DVLLTQTPLSLPVSLGDQASISCRASQSIVDSNGNTFLEWYLQKSGQSPKVLIYKVSNRFSGVPDRFSGRGSGTDFTLKISRVEAEDLGVYYCFQGSHVPYTFGGGTKLEIK
notes: Mouse hybridoma monoclonal antibody raised in tau knockout mice against tau/poly(A) RNA complexes; IgG1 isotype, kappa light chain; also called TRC35 monoclonal antibody; hybridoma clone #35
